The record followed here is the RNAGym collection of RNA variant scans (doi:10.7554/elife.80360).

Sequences and labels used below:
B1: CPEB3 Ribozyme (parent)
chain: GGGGGCCACAGCAGAAGCGUUCACGUCGCGGCCCCUGUCAGAUUCUGGUGAAUCUGCGAAUUCUGCUGU

This data set covers variants of B1. Briefly: self-cleavage, relative activity (ratio to wild type); higher = more cleavage; co-transcriptional.
G11C G17U: the self-cleavage worked out at 0.144.
As for G11C G17C, the self-cleavage came out at 0.143.
Turning to G11U, the self-cleavage turned out to be 0.905.
G11C U61G: the self-cleavage is 0.383.
Regarding G11C U61A, the self-cleavage was 0.424.
Turning to G11C G47A, the self-cleavage was 0.907.
As for G11C G47U, the self-cleavage is 0.916.
Take G11C G47C: the self-cleavage stood at 0.896.
Take G11C C66A: the self-cleavage is 0.844.
For G11U C24U, the self-cleavage came to 0.422.
Turning to G11U C24G, the self-cleavage was found to be 0.177.
On to G11U C66U, for which the self-cleavage is 0.955.
As to G11U C66G, the self-cleavage came out at 0.949.
The result for G11U C66A reads 0.918.
With G11C G31A, the self-cleavage is 0.693.
Then G11U A52G, with 0.901; and G11U G31U, with 0.499.
Regarding G11U G31C, the self-cleavage turned out to be 0.138.
With G11U G68C, the self-cleavage turned out to be 0.943.
Regarding G11U C12U, the self-cleavage came to 0.44.
The result for G11U C12A reads 0.549.
For G11U C12G, the self-cleavage was 0.577.
As for G11C C35G, the self-cleavage amounted to 0.209.
Take G11C U38G: the self-cleavage came to 0.113.
G11C U38A: the self-cleavage was 0.729.
With G11C C63G, the self-cleavage was determined as 0.299.
In the case of G11C C63A, the self-cleavage came to 0.275.
Then G11U G37C, with 0.213; and G11U G37A, with 0.145; and G11U G37U, with 0.165.
Regarding G11U C39A, the self-cleavage stood at 0.36.
As for G11U C39U, the self-cleavage amounted to 0.527.
Consider G11U C39G, for which the self-cleavage worked out at 0.536.
For the variant G11C U49A, the self-cleavage came out at 0.882.
In the case of G11C U26C, the self-cleavage came to 0.729.
Turning to G11C U26G, the self-cleavage came out at 0.417.
For the variant G11C U26A, the self-cleavage was 0.387.
The result for G11C U62A reads 0.409.
Turning to G11C U62G, the self-cleavage came to 0.251.
Then G11C U62C, with 0.402.
G11U G25A: the self-cleavage was 0.141.
With G11U G25U, the self-cleavage is 0.136.
G11U C33G: the self-cleavage is 0.619.
In the case of G11U C33A, the self-cleavage was determined as 0.765.
G11U A51G: the self-cleavage amounted to 0.921.
G11U A51U: the self-cleavage was 0.785.
Take G11U C57A: the self-cleavage came to 0.31.
As to G11U C57U, the self-cleavage stood at 0.215.
Then G11U C57G, with 0.204; and G11C G58A, with 0.82; and G11U G58C, with 0.857.
On to G11U G58A, for which the self-cleavage amounted to 0.846.
For G11U G58U, the self-cleavage stood at 0.891.
Regarding G11U C18U, the self-cleavage stood at 0.372.
The result for G11U C18G reads 0.0807; that for G11U C18A, 0.0522; that for G11U G48C, 0.878.
Turning to G11C U67C, the self-cleavage turned out to be 0.92.
As to G11C U67A, the self-cleavage is 0.897.
Consider G11C U67G, for which the self-cleavage was 0.93.
Regarding G11C C34U, the self-cleavage was 0.901.
Turning to G11C G50U, the self-cleavage was 0.867.
As for G11C G50A, the self-cleavage came out at 0.826.
As to G11U G30A, the self-cleavage came out at 0.589.
For G11U G30C, the self-cleavage stood at 0.455.
With G11C U20C, the self-cleavage is 0.158.
Then G11C U20A, with 0.115; and G11C C57G, with 0.284.
With G11C C57U, the self-cleavage turned out to be 0.238.
The result for G11U C35U reads 0.815; that for G11U C35G, 0.341.
Turning to G11C U64C, the self-cleavage is 0.424.
Consider G11C U64A, for which the self-cleavage came to 0.385.
For G11C G48A, the self-cleavage was found to be 0.921.
With G11C G48C, the self-cleavage is 0.963.
Take G11U A13C: the self-cleavage was 0.146.
In the case of G11U A13G, the self-cleavage worked out at 0.527.
G11U A13U: the self-cleavage was found to be 0.184.
Then G11U A40G, with 0.668; and G11U A40C, with 0.213.
The result for G11U G56C reads 0.367; that for G11U G56A, 0.701; that for G11U G56U, 0.404.
The result for G11C C45U reads 0.804; that for G11C C45A, 0.757; that for G11U C32U, 0.854.
Take G11U C32G: the self-cleavage was 0.295.
As to G11U C27U, the self-cleavage is 0.148.
The result for G11U C27G reads 0.134; that for G11U C27A, 0.16.
In the case of G11U C22U, the self-cleavage came to 0.179.
For the variant G11U C22A, the self-cleavage came to 0.129.
As to G11U C22G, the self-cleavage amounted to 0.112.
With G11C U53C, the self-cleavage worked out at 0.28.
The result for G11C U53A reads 0.381.
Consider G11C G30A, for which the self-cleavage came to 0.522.
The result for G11C G30C reads 0.435.
As for G11U A15U, the self-cleavage was 0.295.
G11C U43A: the self-cleavage turned out to be 0.357.
The result for G11C U43C reads 0.571.
The result for G11U G41A reads 0.217.
Take G11U G41U: the self-cleavage amounted to 0.359.
For G11C U44A, the self-cleavage was 0.636.
For G11C U21C, the self-cleavage was 0.431.
Turning to G11C U21G, the self-cleavage came to 0.199.
Then G11C C39G, with 0.408.
As to G11C C39A, the self-cleavage is 0.257.
As for G11U A23G, the self-cleavage came out at 0.651.
The result for G11U A23U reads 0.945.
In the case of G11U A23C, the self-cleavage came to 0.685.
On to G11U C34U, for which the self-cleavage amounted to 0.915.
The result for G11U C34G reads 0.635; that for G11U G19C, 0.135.
Regarding G11U G19U, the self-cleavage was found to be 0.118.
Regarding G11U G19A, the self-cleavage was 0.115.
The result for G11C G28A reads 0.0877.
The result for G11C G28U reads 0.137.
Consider G11C G28C, for which the self-cleavage stood at 0.137.
With G11C G37C, the self-cleavage worked out at 0.103.
Regarding G11C G37A, the self-cleavage turned out to be 0.217.
As to G11U C45A, the self-cleavage came to 0.732.
For the variant G11U C45U, the self-cleavage amounted to 0.893.
For the variant G11C C54G, the self-cleavage turned out to be 0.261.
The result for G11C C54U reads 0.618; that for G11C G25A, 0.149.
For G11C G25C, the self-cleavage amounted to 0.177.
Then G11C G41A, with 0.209; and G11C G56A, with 0.564.
Take G11C G56U: the self-cleavage is 0.359.
For the variant G11C G68A, the self-cleavage was 0.907.
For the variant G11C G68C, the self-cleavage was found to be 0.823.
Take G11U G17A: the self-cleavage stood at 0.141.
Then G11U G17C, with 0.129; and G11U G17U, with 0.148; and G11U G14C, with 0.161.
As for G11U G14U, the self-cleavage stood at 0.144.
With G11U G47A, the self-cleavage was 0.897.
Regarding G11U G47C, the self-cleavage stood at 0.954.
In the case of G11U A16C, the self-cleavage was determined as 0.101.
Take G11U A16U: the self-cleavage turned out to be 0.48.
The result for G11C G65C reads 0.409.
Take G11C G65U: the self-cleavage was 0.53.
Take G11C U55C: the self-cleavage was 0.243.
As for G11U C29U, the self-cleavage came out at 0.142.
In the case of G11U C29A, the self-cleavage is 0.202.
Consider G11U C29G, for which the self-cleavage came to 0.149.
On to G11C U36C, for which the self-cleavage came out at 0.62.
On to G11C U36A, for which the self-cleavage was 0.0623.
Take G11C U36G: the self-cleavage is 0.18.
As for G11U G28C, the self-cleavage is 0.116.
Take G11U G28U: the self-cleavage came out at 0.192.
The result for G11U A59G reads 0.901.
For the variant G11U G65C, the self-cleavage amounted to 0.574.
On to G11U G65U, for which the self-cleavage came out at 0.68.
Regarding G11C G14U, the self-cleavage came out at 0.172.
As for G11C G14C, the self-cleavage came out at 0.0758.
Turning to G11C G14A, the self-cleavage came to 0.0859.
Consider G11U G50C, for which the self-cleavage worked out at 0.797.
G11U G50U: the self-cleavage amounted to 0.916.
In the case of G11C U46G, the self-cleavage was 0.849.
Turning to G11C U46C, the self-cleavage was 0.787.
As for G11C U46A, the self-cleavage turned out to be 0.866.
For G11U A42G, the self-cleavage is 0.476.
For G11U A42C, the self-cleavage came out at 0.342.
Then G11C G19C, with 0.145; and G11U C63U, with 0.498.
As for G11U C63G, the self-cleavage is 0.231.
